Assay results as given in publication PMC3739435 (Peptides, 2013).
Square brackets hold non-standard residues; d marks the D form. Ends that are not written are not given here. * marks the point of attachment. Benzoyl(4-benzoyl) = O=C(c1ccccc1)c1ccc(C(=O)*)cc1; Bpa = N[C@@H](Cc1ccc(C(=O)c2ccccc2)cc1)C(=O)O; Phe(NO2) = nitro-phenylalanine (NO2-Phe); Desaminotyrosyl = O=C(CCc1ccc(O)cc1)*; Nle = CCCC[C@H](N)C(=O)O

T1: hemagglutinin-tagged wild type human type 2 CCK receptor (human, UniProt P32239 1-447)
T1 sequence (looked up): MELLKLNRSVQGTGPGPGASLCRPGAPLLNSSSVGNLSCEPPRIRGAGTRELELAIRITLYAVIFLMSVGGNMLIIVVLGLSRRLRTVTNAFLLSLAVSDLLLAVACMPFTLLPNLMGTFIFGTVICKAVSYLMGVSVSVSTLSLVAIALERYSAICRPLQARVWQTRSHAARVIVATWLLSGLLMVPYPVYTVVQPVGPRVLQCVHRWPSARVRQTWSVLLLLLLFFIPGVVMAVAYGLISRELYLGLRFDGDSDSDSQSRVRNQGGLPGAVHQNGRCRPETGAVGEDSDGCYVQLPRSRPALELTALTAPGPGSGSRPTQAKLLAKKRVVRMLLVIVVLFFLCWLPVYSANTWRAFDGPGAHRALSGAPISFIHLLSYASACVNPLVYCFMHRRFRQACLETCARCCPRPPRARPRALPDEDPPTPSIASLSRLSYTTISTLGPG


Experiments:
[1] = target: T1, hemagglutinin-tagged wild type human …; assay: cell-based or functional assay
[2] = target: T1, hemagglutinin-tagged wild type human …; assay: radioligand binding

| Binder | intracellular calcium responses in CHO-CCK2R cells, EC50 [1] | IC50 [2] |
| --- | --- | --- |
| [Desaminotyrosyl]GDY[Nle]GW[Nle][Bpa]F (ends and bridges not checked) [(des-amino-Tyr)-Gly-[(Nle28,Nle31,Bpa32)CCK-26-33]] | > 1000 nM | > 1000 nM |
| [Desaminotyrosyl]G[Phe(NO2)]Y[Nle]GW[Nle]DF (ends and bridges not checked) [(des-amino-Tyr)-Gly-[(NO2-Phe26,Nle28,Nle31)CCK-26-33]] | > 1000 nM | – |
| [Desaminotyrosyl]GDY[Nle]GWK(Benzoyl(4-benzoyl))DF (ends and bridges not checked) [(des-amino-Tyr)-Gly-[(Nle28,(BzBz)Lys31)CCK-26-33]] | – | > 1000 nM |
| [Desaminotyrosyl]GDY[Nle]G[Bpa][Nle]DF (ends and bridges not checked) [(des-amino-Tyr)-Gly-[(Nle28,Bpa30,Nle31)CCK-26-33]] | – | > 1000 nM |
